Source: patent publication US20090092614A1 (Biogen, published 2009)

Legend:
[1] = target: T1, human IGF-1R(1-903)-Fc (human, UniProt P08069 31-933); assay: blocking ELISA, competitor 320 nM IGF-1
T1 construct: Made by Biogen Idec; also called hIGF-1R-Fc; IGF-1R-Fc

[2] = target: T1, human IGF-1R(1-903)-Fc; assay: blocking ELISA, competitor 640 nM IGF-2
[3] = target: T2, hIGF-1R-Fc mutant SD203 (human, UniProt P08069 31-933); assay: KD grade of mutant hIGF-1R-Fc; S = binding to antibody was ablated by mutation
T2 construct: build as m36 with the substitution; also called N254A

[4] = target: T3, hIGF-1R-Fc mutant SD207 (human, UniProt P08069 31-933); assay: as above
T3 construct: build as m36 with the substitution; also called G265Y
T3 sequence (P08069 other isoform, or with tags, fused parts or gaps mutant limits assumed): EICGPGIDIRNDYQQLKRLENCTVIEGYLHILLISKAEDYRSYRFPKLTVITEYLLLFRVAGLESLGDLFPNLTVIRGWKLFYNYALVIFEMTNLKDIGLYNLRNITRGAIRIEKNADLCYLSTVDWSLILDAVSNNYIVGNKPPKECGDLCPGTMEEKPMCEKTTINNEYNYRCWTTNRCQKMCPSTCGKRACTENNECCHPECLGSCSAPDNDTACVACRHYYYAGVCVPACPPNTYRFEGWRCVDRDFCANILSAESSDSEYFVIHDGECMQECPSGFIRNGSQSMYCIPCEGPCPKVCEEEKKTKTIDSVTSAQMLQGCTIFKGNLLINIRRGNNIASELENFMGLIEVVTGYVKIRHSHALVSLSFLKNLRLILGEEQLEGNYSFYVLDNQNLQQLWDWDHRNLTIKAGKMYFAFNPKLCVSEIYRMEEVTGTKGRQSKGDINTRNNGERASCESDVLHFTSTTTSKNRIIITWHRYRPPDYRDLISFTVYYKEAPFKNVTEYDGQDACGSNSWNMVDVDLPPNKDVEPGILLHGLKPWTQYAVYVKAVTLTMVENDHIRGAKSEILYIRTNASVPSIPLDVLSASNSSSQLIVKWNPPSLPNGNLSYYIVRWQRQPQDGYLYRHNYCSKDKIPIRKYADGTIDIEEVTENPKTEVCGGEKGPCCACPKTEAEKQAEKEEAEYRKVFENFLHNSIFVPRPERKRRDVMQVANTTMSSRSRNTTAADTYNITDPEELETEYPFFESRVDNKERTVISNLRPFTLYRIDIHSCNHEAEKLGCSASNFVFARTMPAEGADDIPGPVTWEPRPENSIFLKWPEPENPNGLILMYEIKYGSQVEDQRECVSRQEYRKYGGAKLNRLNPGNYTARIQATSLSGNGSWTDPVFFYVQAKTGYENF

T1 sequence (P08069 31-933): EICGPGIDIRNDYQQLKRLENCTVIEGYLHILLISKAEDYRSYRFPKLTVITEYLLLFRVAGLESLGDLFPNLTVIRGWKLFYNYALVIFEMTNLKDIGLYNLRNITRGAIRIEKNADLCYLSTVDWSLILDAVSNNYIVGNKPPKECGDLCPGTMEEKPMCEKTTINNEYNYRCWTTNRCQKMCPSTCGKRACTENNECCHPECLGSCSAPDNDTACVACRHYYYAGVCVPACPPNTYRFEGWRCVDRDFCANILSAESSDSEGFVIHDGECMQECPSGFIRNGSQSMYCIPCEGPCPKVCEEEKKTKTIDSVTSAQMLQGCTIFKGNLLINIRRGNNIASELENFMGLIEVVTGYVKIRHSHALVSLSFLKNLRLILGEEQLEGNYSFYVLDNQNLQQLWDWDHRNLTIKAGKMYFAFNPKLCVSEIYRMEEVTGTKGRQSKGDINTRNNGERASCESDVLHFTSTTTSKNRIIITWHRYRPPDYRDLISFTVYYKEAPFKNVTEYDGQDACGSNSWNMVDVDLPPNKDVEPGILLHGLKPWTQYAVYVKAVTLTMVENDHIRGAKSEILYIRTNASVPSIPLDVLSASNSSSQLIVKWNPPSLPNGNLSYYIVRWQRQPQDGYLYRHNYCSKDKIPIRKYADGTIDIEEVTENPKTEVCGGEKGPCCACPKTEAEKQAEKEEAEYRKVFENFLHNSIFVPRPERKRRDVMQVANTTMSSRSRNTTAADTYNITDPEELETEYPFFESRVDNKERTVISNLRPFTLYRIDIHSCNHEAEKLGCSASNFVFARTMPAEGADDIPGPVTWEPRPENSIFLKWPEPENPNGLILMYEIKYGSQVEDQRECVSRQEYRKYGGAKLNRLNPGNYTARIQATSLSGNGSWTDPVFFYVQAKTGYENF
T2 sequence (P08069 other isoform, or with tags, fused parts or gaps mutant limits assumed): as the sequence (P08069 31-933) above, with N254A counted along it

B1: P1E2 (chimeric antibody) (antibody, V domains shown)
VH: QVQLQQPGAELVKPGASVKLSCKASGYTFTSYWMHWVKQRPGQGLEWIGEINPTYGRSNYNEKFKSKATLTVDKSSSTAYMQLSSLTSEDSAVYYCARLVRLRYFDVWGAGTTVTVSS
VL: DIVMTQAAFSNPVTLGTSASISCRSSKSLLHSNGITYLYWYLQKPGQSPQLLIYQMSNLASGVPDRFSSSGSGTDFTLRISRVEAEDVGVYYCAQNLELPYTFGGGTKLEIK
[1]
  % IGF-1 inhibition upon antibody saturation: 38%
[2]
  % IGF-2 inhibition upon antibody saturation: ~50%
[3]
  binding result: no binding
[4]
  binding result: no binding
